Laboratory results as given in US20140178329A1 (INSTITUCIO CATALANA DE RECERCA I ESTUDIS AVANCATS ICREA, published 2014).
No end group written: not given here.

B1: FLAG-tagged wild-type soluble APRIL (amino acid 105 to 250) (ligand)
chain: AVLTQKQKKQHSVLHLVPINATSKDDSDVTEVMWQPALRRGRGLQAQGYGVRIQDAGVYLLYSQVLFQDVTFTMGQVVSREGQGRQETLFRCIRSMPSHPDRAYNSCYSAGVFHLHQGDILSVIIPRARAKLNLSPHGTFLGFVKL
notes: Used as conditioned medium of transfected 293T cells, not purified; also called WT; WT APRIL; not shown: FLAG tag
B15: mouse BCMA-Fc (R&D Systems) (Fc fusion, UniProt O88472 2-49, looked up)
chain: AQQCFHSEYFDSLLHACKPCHLRCSNPPATCQPYCDPSVTSSVKGTYT
notes: Bought; also called mBCMA-Fc; murine BCMA-Fc; not shown: Fc portion of human IgG1
B16: mouse TACI-Fc (R&D Systems) (Fc fusion, UniProt Q9ET35 5-129, looked up)
chain: FCPKDQYWDSSRKSCVSCALTCSQRSQRTCTDFCKFINCRKEQGRYYDHLLGACVSCDSTCTQHPQQCAHFCEKRPRSQANLQPELGRPQAGEVEVRSDNSGRHQGSEHGPGLRLSSDQLTLYCT
notes: Bought; also called mTACI-Fc; murine TACI-Fc; not shown: Fc portion of human IgG1

What was measured:
human TACI-Fc = target: T1, human TACI-Fc (human, UniProt O14836 2-160, limits assumed); experiment: SPR (Biacore 2000), FLAG-APRIL captured by anti-FLAG M2, receptor-Fc injected, single cycle kinetics, 1:1 fit
T1 construct: Generated in-house; not shown: Fc portion of human IgG1
T1 sequence (looked up): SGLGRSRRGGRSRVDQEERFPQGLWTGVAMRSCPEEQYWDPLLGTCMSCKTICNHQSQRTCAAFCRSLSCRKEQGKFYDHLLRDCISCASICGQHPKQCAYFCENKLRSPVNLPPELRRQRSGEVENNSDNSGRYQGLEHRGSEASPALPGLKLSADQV
Method: (§1) FIG. 10: Surface Plasmon Resonance sensorgrams to illustrate binding of TACI-Fc and BCMA-Fc to WT and R206E-APRIL. Sensorgrams of human (Panel A) and mouse (Panel B) receptors binding to WT and R206E-APRIL. Stepwise increments in the curves represent sequential injections of receptor at the following concentrations: […]. In some cases, no value for affinity was calculated due to a low binding response or high drift.
(§2) In order to further assess the binding properties of the mutants and to measure apparent affinities and kinetics of receptor binding, a Surface Plasmon Resonance based receptor binding assay was performed on a Biacore 2000 (GE Healthcare, Diegem, Belgium). Anti-FLAG-M2 monoclonal antibody (Sigma-Aldrich) was diluted at a concentration of 5 μg/ml in 10 mM sodium acetate pH 4.5 and covalently immobilized (approx 1500 RU) to a CM-5 sensor chip (GE Healthcare), using standard amine coupling chemistry according to manufacturer's guidelines (Amine coupling kit, GE Healthcare). The different FLAG-APRIL variants in the form of tissue culture supernatants were captured onto the chip via the FLAG-tag at 10 μl/minute for five minutes, giving capture levels ranging from 159 to 207 RU. As a reference lane, one of the flow cells was left free of soluble FLAG-APRIL, to control for any background binding. BCMA- or TACI-Fc were then injected for three minutes over all four flow cells at 30 μl/minutes at increasing concentrations (ranging from 1-50 nM) using the single cycle kinetics method at 25° C. Dissociation was monitored for five minutes. The resulting curves were fitted using a 1:1 Langmuir model using BIAevaluation software 4.1. For each combination of FLAG-APRIL and BCMA- or TACI-Fc, the apparent kₐ, kd and KD were calculated from a global fit of binding curves from at least three separate experiments. Non-specific binding in the reference cell was subtracted before curve fitting. Regeneration of the anti-FLAG antibody surface was carried out with a 10-minute injection at 30 μl/minute of a mixture of ⅓ volume of TBS pH 11.5, ⅓ volume of Ionic solution and ⅓ volume of water. The Ionic solution was comprised of KSCN (0.46 M), MgCl₂ (1.83 M), urea (0.92 M) and guanidine-HCl (1.83 M).

[1] = target: B15; experiment: receptor-binding ELISA, mouse BCMA-Fc coated, dilution series of conditioned medium, anti-FLAG-HRP, OD 405 nm [TACI selective, Ms BCMA-Fc coated]
Method: (§3) The relative binding of the variants to either BCMA or TACI, was tested using a binding ELISA. The following proteins were used: human BCMA-Fc, human TACI-Fc (both generated in-house), mouse BCMA-Fc (R&D Systems, Abingdon, UK), mouse TACI-Fc (R&D Systems); in all cases the Fc portion is from human IgG1. BCMA-Fc and TACI-Fc were coated on 96-well Nunc Maxisorp plates (Thermo Fischer Scientific, Roskilde, Denmark) at concentrations of 1 μg/ml and 2 μg/ml, respectively, in 0.5 M sodium bicarbonate buffer pH 9.5, overnight at 4° C. Plates were then blocked with 5% BSA for one hour at 37° C. Soluble APRIL variants in the form of tissue culture conditioned medium were then added to the plate for two hours at 37° C. Following APRIL binding, plates were washed three times with PBS, 0.05% TWEEN®20. Bound APRIL was detected with 1 μg/ml of HRP-coupled anti-FLAG M2 and visualized with 2,2′-azino-bis(3-ethylbenzothiazoline-6-sulphonic acid (ABTS) (Sigma-Aldrich). The absorbance was read at 405 nm using a UV-VIS microplate reader (BioRad, Veenendaal, The Netherlands).

[2] = target: B15; experiment: receptor-binding ELISA, mouse BCMA-Fc coated, dilution series of conditioned medium, anti-FLAG-HRP, OD 405 nm [BCMA selective, Ms BCMA-Fc coated]
Method: as §3

[3] = target: B16; experiment: receptor-binding ELISA, mouse TACI-Fc coated, dilution series of conditioned medium, anti-FLAG-HRP, OD 405 nm [TACI selective, Ms TACI-Fc coated]
Method: as §3

[4] = target: B16; experiment: receptor-binding ELISA, mouse TACI-Fc coated [TACI selective, Ms TACI-Fc coated]
Method: as §3

[5] = target: B1; experiment: SPR (Biacore 2000), FLAG-APRIL captured by anti-FLAG M2, receptor-Fc injected, single cycle kinetics, 1:1 fit
Method: as §1, §2

B1 was tested, and the Kd (human TACI-Fc) was 3.9 nM, the koff (human TACI-Fc) was 0.00041 s⁻¹ and the kon (human TACI-Fc) was 110000 M⁻¹ s⁻¹.

B2: APRIL-D132F (FLAG-tagged soluble variant) (ligand)
chain: AVLTQKQKKQHSVLHLVPINATSKDDSFVTEVMWQPALRRGRGLQAQGYGVRIQDAGVYLLYSQVLFQDVTFTMGQVVSREGQGRQETLFRCIRSMPSHPDRAYNSCYSAGVFHLHQGDILSVIIPRARAKLNLSPHGTFLGFVKL
notes: Used as conditioned medium; not shown: FLAG tag
B2: binds [1].

B3: APRIL-D132Y (FLAG-tagged soluble variant) (ligand)
chain: AVLTQKQKKQHSVLHLVPINATSKDDSYVTEVMWQPALRRGRGLQAQGYGVRIQDAGVYLLYSQVLFQDVTFTMGQVVSREGQGRQETLFRCIRSMPSHPDRAYNSCYSAGVFHLHQGDILSVIIPRARAKLNLSPHGTFLGFVKL
notes: as for B2
B3: binds [1].

B4: APRIL-D205Y (FLAG-tagged soluble variant) (ligand)
chain: AVLTQKQKKQHSVLHLVPINATSKDDSDVTEVMWQPALRRGRGLQAQGYGVRIQDAGVYLLYSQVLFQDVTFTMGQVVSREGQGRQETLFRCIRSMPSHPYRAYNSCYSAGVFHLHQGDILSVIIPRARAKLNLSPHGTFLGFVKL
notes: as for B2
B4: binds [2].

B5: APRIL-H241T (FLAG-tagged soluble variant) (ligand)
chain: AVLTQKQKKQHSVLHLVPINATSKDDSDVTEVMWQPALRRGRGLQAQGYGVRIQDAGVYLLYSQVLFQDVTFTMGQVVSREGQGRQETLFRCIRSMPSHPDRAYNSCYSAGVFHLHQGDILSVIIPRARAKLNLSPTGTFLGFVKL
notes: not shown: FLAG tag
B5: binds [1]; binds [3].

B6: APRIL-R206M (FLAG-tagged soluble variant) (ligand)
chain: AVLTQKQKKQHSVLHLVPINATSKDDSDVTEVMWQPALRRGRGLQAQGYGVRIQDAGVYLLYSQVLFQDVTFTMGQVVSREGQGRQETLFRCIRSMPSHPDMAYNSCYSAGVFHLHQGDILSVIIPRARAKLNLSPHGTFLGFVKL
notes: as for B2
In the case of B6, the Kd (human TACI-Fc) is reported as 0.32 nM, the koff (human TACI-Fc) is reported as 0.00016 s⁻¹ and the kon (human TACI-Fc) is reported as 490000 M⁻¹ s⁻¹. B6: binds [2].

B7: APRIL-T175D (FLAG-tagged soluble variant) (ligand)
chain: AVLTQKQKKQHSVLHLVPINATSKDDSDVTEVMWQPALRRGRGLQAQGYGVRIQDAGVYLLYSQVLFQDVDFTMGQVVSREGQGRQETLFRCIRSMPSHPDRAYNSCYSAGVFHLHQGDILSVIIPRARAKLNLSPHGTFLGFVKL
notes: as for B2
B7: binds [2].

B8: D132A (ligand)
soluble APRIL monomer: AVLTQKQKKQHSVLHLVPINATSKDDSAVTEVMWQPALRRGRGLQAQGYGVRIQDAGVYLLYSQVLFQDVTFTMGQVVSREGQGRQETLFRCIRSMPSHPDRAYNSCYSAGVFHLHQGDILSVIIPRARAKLNLSPHGTFLGFVKL
notes: FLAG-tagged soluble variant used as 293T conditioned medium; predicted TACI-selective; member of group m13; also called APRIL-D132A
B8: binds [1]; binds [3].

B9: R233A (ligand)
soluble APRIL monomer: AVLTQKQKKQHSVLHLVPINATSKDDSDVTEVMWQPALRRGRGLQAQGYGVRIQDAGVYLLYSQVLFQDVTFTMGQVVSREGQGRQETLFRCIRSMPSHPDRAYNSCYSAGVFHLHQGDILSVIIPRAAAKLNLSPHGTFLGFVKL
notes: FLAG-tagged soluble variant used as 293T conditioned medium; predicted TACI-selective; member of group m13; also called APRIL-R233A
B9: binds [1]; binds [3].

B10: R233E (ligand)
soluble APRIL monomer: AVLTQKQKKQHSVLHLVPINATSKDDSDVTEVMWQPALRRGRGLQAQGYGVRIQDAGVYLLYSQVLFQDVTFTMGQVVSREGQGRQETLFRCIRSMPSHPDRAYNSCYSAGVFHLHQGDILSVIIPRAEAKLNLSPHGTFLGFVKL
notes: FLAG-tagged soluble variant used as 293T conditioned medium; predicted TACI-selective; member of group m13; also called APRIL-R233E
B10: binds [1]; binds [3].

B11: T175F (ligand)
soluble APRIL monomer: AVLTQKQKKQHSVLHLVPINATSKDDSDVTEVMWQPALRRGRGLQAQGYGVRIQDAGVYLLYSQVLFQDVFFTMGQVVSREGQGRQETLFRCIRSMPSHPDRAYNSCYSAGVFHLHQGDILSVIIPRARAKLNLSPHGTFLGFVKL
notes: FLAG-tagged soluble variant used as 293T conditioned medium; predicted TACI-selective; member of group m13; also called APRIL-T175F
B11: no binding [4]; binds [1].

B12: T175L (ligand)
soluble APRIL monomer: AVLTQKQKKQHSVLHLVPINATSKDDSDVTEVMWQPALRRGRGLQAQGYGVRIQDAGVYLLYSQVLFQDVLFTMGQVVSREGQGRQETLFRCIRSMPSHPDRAYNSCYSAGVFHLHQGDILSVIIPRARAKLNLSPHGTFLGFVKL
notes: FLAG-tagged soluble variant used as 293T conditioned medium; predicted TACI-selective; member of group m13; also called APRIL-T175L
B12: no binding [4]; binds [1].

B13: T175Y (ligand)
soluble APRIL monomer: AVLTQKQKKQHSVLHLVPINATSKDDSDVTEVMWQPALRRGRGLQAQGYGVRIQDAGVYLLYSQVLFQDVYFTMGQVVSREGQGRQETLFRCIRSMPSHPDRAYNSCYSAGVFHLHQGDILSVIIPRARAKLNLSPHGTFLGFVKL
notes: FLAG-tagged soluble variant used as 293T conditioned medium; predicted TACI-selective; member of group m13; also called APRIL-T175Y
B13: no binding [4]; binds [1].

B14: human BCMA-Fc (Fc fusion, UniProt Q02223 2-54, looked up)
chain: LQMAGQCSQNEYFDSLLHACIPCQLRCSSNTPPLTCQRYCNASVTNSVKGTNA
modifications: cysteine pairing not given here; also: fused to human IgG1 Fc, construct limits, linker and order not given here
notes: Generated in-house; not shown: Fc portion of human IgG1
Work on B14 yielded a Kd [5] of 0.38 nM, a koff [5] of 0.0002 s⁻¹ and a kon [5] of 530000 M⁻¹ s⁻¹.

B15 was tested, and the Kd [5] was 0.14 nM, the koff [5] was 0.00013 s⁻¹ and the kon [5] was 890000 M⁻¹ s⁻¹.

For B16, the Kd [5] was 4.4 nM, the koff [5] was 0.00075 s⁻¹ and the kon [5] was 170000 M⁻¹ s⁻¹.
